Experimental data from PMC3044117.

Molecular target: HA-tagged Patched 1 (Ptc1), expressed in 293T cells (UniProt Q61115)
Test: pull-down

Chain of UniProt Q61115 (Q61115 whole entry): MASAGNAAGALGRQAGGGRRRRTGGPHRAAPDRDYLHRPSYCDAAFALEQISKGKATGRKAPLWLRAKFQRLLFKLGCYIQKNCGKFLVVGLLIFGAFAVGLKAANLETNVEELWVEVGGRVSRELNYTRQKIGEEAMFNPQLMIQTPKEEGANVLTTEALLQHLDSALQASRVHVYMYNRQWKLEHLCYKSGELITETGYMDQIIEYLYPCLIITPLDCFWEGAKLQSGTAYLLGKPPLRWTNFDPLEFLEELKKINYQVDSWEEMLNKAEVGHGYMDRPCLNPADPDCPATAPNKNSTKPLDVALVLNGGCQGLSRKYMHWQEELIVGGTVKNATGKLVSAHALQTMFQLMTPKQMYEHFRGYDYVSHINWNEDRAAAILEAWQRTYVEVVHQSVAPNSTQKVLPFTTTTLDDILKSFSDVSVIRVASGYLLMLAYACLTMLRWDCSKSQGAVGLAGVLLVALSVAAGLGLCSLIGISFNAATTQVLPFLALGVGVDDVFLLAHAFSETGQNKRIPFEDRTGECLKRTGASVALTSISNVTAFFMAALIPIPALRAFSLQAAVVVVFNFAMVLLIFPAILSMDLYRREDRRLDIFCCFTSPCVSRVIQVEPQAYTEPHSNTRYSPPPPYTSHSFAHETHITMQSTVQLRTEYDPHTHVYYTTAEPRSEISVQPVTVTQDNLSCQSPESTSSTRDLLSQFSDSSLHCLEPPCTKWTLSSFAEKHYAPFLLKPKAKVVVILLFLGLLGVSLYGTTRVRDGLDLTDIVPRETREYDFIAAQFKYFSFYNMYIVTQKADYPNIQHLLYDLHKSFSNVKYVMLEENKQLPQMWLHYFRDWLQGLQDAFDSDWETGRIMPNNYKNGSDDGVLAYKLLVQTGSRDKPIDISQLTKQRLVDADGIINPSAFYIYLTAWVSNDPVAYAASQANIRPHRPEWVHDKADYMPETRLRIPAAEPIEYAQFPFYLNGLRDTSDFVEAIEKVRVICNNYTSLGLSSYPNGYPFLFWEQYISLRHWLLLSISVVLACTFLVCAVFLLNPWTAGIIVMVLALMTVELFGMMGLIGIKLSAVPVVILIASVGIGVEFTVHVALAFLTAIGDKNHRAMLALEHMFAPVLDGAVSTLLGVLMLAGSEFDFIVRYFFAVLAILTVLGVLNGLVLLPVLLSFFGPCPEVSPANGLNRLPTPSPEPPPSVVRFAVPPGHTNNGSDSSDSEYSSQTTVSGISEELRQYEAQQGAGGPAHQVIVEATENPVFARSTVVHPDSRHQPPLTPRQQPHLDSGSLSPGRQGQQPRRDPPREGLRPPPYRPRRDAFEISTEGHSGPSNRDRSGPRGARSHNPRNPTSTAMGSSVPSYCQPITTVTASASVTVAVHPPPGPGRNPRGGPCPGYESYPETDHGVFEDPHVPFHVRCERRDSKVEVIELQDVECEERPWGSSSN

**Q.** Which Kd does the source give for “GPC5-AP fusion protein in conditioned medium” here?
**A.** Its Kd is 37 nM.
